Reference: the supplement of paper PMC10126150
± gives the standard deviation of the averaged measurements.

Tested on: ATP
Assay: switch fluorescence ratio, 500 uM ATP over buffer (Cy3 cluster intensity, sum of 5 cycles each) (fold (ratio)); higher = stronger signal-on switching upon ATP binding; sequences stand for … in TCGTCGGCAGCGTCAGATGTGTATAAGAGACAGTTTTTTTTTTTTTTTTTTTTTTTTT…TC
Settings: aptamer strand: ATP DNA aptamer (quencher-CACCTGGGGGAGTATTGCGGAGGAAGG + anchor), 100 nM annealed; ATP concentration: 500 uM
Method in brief: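 Imaging in selection buffer was followed by imaging after 15 min with 500 uM ATP at 22 °C, for Cy3-labelled switching-strand clusters annealed to 100 nM quencher-labelled ATP aptamer on a modified Illumina MiSeq flow-cell. Five of these buffer/ATP cycles ran, separated by NaOH stripping and re-annealing. The fluorescence ratio per cluster is summed target-cycle over summed buffer-cycle Cy3 intensity, averaged per switch-domain sequence; clusters outside 100-1000 RFU were removed.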
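Also: ATP exposure 15 min at 22 °C before imaging.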

Sequence | switch fluorescence ratio
TTTTGATTGC | 1.03 ± 0.037
GGGTTTAAAA | 0.985 ± 0.044
TTATCGATAG | 0.985 ± 0.019
AACGGTGATT | 1.01 ± 0.07
TTAACCAGCA | 1.05 ± 0.032
ATTACTTATC | 1.02 ± 0.018
GGGCAAACAG | 0.959 ± 0.029
TAAATGCGGG | 0.975 ± 0.039
TTTGAATATT | 0.991 ± 0.036
TTTTAGTGTC | 0.998 ± 0.072
CTTACCTTGC | 1.99 ± 0.44
TATTTAGAAG | 1.02 ± 0.054
TATTTCTTT | 0.99 ± 0.026
TGCGACAGGG | 0.988 ± 0.013
ATATTCGTTG | 1.007 ± 0.0027
AAAGGATGGG | 1 ± 0.016
AAGCCGTGTG | 0.988 ± 0.042
TTGTCTTTTT | 0.998 ± 0.015
CGGGAAGCAC | 1.53 ± 0.34
TGGCACAGGG | 1.06 ± 0.016
CGATATATTA | 0.9874 ± 0.0053
GGAGTAAAGG | 1.06 ± 0.022
TCGTCGCAGG | 1.1 ± 0.058
ACGGCTAAGG | 1.06 ± 0.029
TAATAGGTTT | 1.1 ± 0.22

Sequence | switch fluorescence ratio
CGGGTTGCAT | 1.023 ± 0.0087
GTTTTAGAGG | 1.01 ± 0.015
TATACACATT | 1.02 ± 0.035
TGGTGGTGCA | 1.04 ± 0.039
TCAATGGTGG | 1.01 ± 0.028
TTTATGTTTT | 0.965 ± 0.041
GTTCTATGC | 1 ± 0.079
GTTGTACTTG | 0.988 ± 0.005
TGGTGGTGTA | 0.954 ± 0.035
CATGTATTGG | 0.991 ± 0.021
GGTGGGGCTG | 0.968 ± 0.03
CAGGACGGGG | 1.01 ± 0.038
CATTATGATG | 1.01 ± 0.013
CGTTTTTTTA | 0.992 ± 0.018
AGCACGTTCT | 0.993 ± 0.1
CGGATCCTTC | 1.02 ± 0.037
ATGGGAATAC | 2.59 ± 0.28
CGCTTGCCAG | 0.972 ± 0.027
CAGTGAGATG | 1.03 ± 0.019
GCAGCGGGGA | 1.04 ± 0.017
TATATTACTG | 1.09 ± 0.12
AGCTTAGTTT | 0.975 ± 0.028
TGTTTGGCTT | 0.9619 ± 0.0079
GGGTCGGGGA | 0.97587 ± 0.00076
CGTGGTGTTG | 0.991 ± 0.015

Sequence | switch fluorescence ratio
TTCGTTTTCG | 0.991 ± 0.029
AATCGGCCGG | 1.01 ± 0.053
GGTCCTTTGA | 1 ± 0.029
AACTTTGACC | 1.034 ± 0.0014
TTATCCCGAA | 0.991 ± 0.0085
AGGCAGATGG | 0.998 ± 0.021
GGGCTGTCTG | 0.9631 ± 0.0076
CTGTGGAGGG | 0.9455 ± 0.0091
CGGTTTAGGG | 0.986 ± 0.026
TTGTTTATAT | 0.9853 ± 0.0053
TTTTGGTTCG | 0.987 ± 0.032
AGTGCTTTTG | 0.978 ± 0.018
GGATTATACA | 1.02 ± 0.002
GGGTATGATG | 1.01 ± 0.044
TTACTGCATT | 1.11 ± 0.014
TTTCAGTCAT | 0.978 ± 0.015
TGATGGATAG | 0.995 ± 0.047
GGTTTGGGCG | 1.03 ± 0.034
GAATTAGAGA | 1.03 ± 0.033
ATTTGTGGTT | 0.9752 ± 0.0085
GGGCAATTGG | 0.992 ± 0.0056
ATCCAGTGTC | 1.057 ± 0.0061
ACGTAACGCT | 1.3 ± 0.052
ATGGTGCAGG | 1.06 ± 0.011
GATTAGGTGT | 1.098 ± 0.0067

Sequence | switch fluorescence ratio
CAGCGAGTGG | 1 ± 0.036
GGCCTAGAGG | 1.01 ± 0.021
GGTGGCATGT | 0.997 ± 0.054
CGGTACGAAT | 1.034 ± 0.0096
CGGTGGCTTC | 1.003 ± 0.0026
CATAGGCTAC | 1.6 ± 0.031
GAATGTATCG | 0.981 ± 0.021
TCTGAAGATT | 0.999 ± 0.016
GGTACGGTAA | 1.11 ± 0.038
ACTGGGTCCG | 1 ± 0.057
CATTAGCAGG | 1.08 ± 0.032
CGTGACTGGT | 0.9683 ± 0.005
GCGGTTGTTC | 0.995 ± 0.034
TATGGAATGT | 0.998 ± 0.0062
TAATTGGGCT | 0.975 ± 0.016
GGGGTGGATT | 0.974 ± 0.013
TAAGCTCAAT | 0.979 ± 0.012
TGAGTGCAGG | 1.02 ± 0.066
AGGCCCCCGA | 1.02 ± 0.066
TTACGTTTGT | 1.02 ± 0.07
ATTGTTATTA | 1.028 ± 0.0035
AGCATGTGGC | 0.991 ± 0.016
GACGGGCCGG | 1.01 ± 0.03
TATCAACCTT | 1.25 ± 0.34
TGAATGAATA | 1.027 ± 0.0085
